Measured values from article doi:10.1101/786475 (bioRxiv, 2019).

Tests used:
Test in all cases: peptide or protein array
[1] = target: Mal32p (spotted on the yeast ProtoArray) (S. cerevisiae, UniProt P38158 1-584)
[2] = target: T1, Eno2p (spotted on the yeast ProtoArray) (S. cerevisiae, UniProt P00925 1-437)
T1 sequence (looked up): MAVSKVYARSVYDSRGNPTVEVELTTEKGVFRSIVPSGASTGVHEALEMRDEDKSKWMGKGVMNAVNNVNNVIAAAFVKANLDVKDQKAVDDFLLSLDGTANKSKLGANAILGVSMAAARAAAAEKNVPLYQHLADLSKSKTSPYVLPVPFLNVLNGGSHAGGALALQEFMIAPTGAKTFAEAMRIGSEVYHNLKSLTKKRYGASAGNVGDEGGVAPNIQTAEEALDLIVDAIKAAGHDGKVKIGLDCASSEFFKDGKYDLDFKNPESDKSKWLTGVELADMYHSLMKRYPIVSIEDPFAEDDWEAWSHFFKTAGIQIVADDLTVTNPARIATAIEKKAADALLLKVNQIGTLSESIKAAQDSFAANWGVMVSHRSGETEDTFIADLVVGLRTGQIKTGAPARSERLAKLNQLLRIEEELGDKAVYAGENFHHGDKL

[3] = target: T2, Qcr6p (spotted on the yeast ProtoArray) (S. cerevisiae, UniProt P00127 1-147)
T2 sequence (looked up): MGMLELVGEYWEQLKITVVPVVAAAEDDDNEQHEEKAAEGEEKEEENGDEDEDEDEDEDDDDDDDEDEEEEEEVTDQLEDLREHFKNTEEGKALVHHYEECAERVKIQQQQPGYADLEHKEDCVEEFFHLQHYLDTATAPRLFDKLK

[4] = target: T3, Cia1p (spotted on the yeast ProtoArray) (S. cerevisiae, UniProt Q05583 1-330)
T3 sequence (looked up): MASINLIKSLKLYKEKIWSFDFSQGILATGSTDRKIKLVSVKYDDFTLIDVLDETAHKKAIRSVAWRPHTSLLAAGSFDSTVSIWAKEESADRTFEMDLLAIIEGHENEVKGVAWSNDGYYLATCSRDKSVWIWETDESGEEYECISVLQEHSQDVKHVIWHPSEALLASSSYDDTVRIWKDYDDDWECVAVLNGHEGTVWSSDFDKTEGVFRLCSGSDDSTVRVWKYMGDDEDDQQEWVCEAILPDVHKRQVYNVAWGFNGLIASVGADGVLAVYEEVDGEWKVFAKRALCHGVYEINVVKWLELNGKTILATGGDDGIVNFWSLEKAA

[5] = target: T4, Pol30p (spotted on the yeast ProtoArray) (S. cerevisiae, UniProt P15873 1-258)
T4 sequence (looked up): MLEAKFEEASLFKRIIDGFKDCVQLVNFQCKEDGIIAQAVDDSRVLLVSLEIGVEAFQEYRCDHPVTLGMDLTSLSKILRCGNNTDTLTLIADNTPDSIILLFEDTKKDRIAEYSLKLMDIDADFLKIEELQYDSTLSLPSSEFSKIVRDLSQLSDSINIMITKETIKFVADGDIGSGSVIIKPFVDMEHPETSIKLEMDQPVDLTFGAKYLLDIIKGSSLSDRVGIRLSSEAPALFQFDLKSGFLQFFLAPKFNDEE

[6] = target: T5, Cap2p (spotted on the yeast ProtoArray) (S. cerevisiae, UniProt P13517 1-287)
T5 sequence (looked up): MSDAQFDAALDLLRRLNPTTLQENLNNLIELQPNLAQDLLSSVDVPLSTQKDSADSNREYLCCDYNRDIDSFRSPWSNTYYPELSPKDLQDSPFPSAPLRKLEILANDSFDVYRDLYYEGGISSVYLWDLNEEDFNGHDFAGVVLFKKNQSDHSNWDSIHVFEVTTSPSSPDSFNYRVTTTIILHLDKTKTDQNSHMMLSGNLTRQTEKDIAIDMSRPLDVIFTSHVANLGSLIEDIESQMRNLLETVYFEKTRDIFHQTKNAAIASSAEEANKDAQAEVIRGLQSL

[7] = target: T6, Erg20p (spotted on the yeast ProtoArray) (S. cerevisiae, UniProt P08524 1-352)
T6 sequence (looked up): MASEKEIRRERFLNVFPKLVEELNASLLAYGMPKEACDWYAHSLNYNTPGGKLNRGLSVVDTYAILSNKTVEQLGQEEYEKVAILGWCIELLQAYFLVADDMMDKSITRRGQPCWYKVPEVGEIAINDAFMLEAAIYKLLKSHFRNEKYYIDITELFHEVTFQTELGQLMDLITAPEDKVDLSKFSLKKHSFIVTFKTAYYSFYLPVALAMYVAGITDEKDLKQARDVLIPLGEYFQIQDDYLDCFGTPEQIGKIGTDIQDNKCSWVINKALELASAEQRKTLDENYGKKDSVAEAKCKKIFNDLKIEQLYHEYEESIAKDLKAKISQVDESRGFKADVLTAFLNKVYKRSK

Measured: binding result

Chain of Mal32p (spotted on the yeast ProtoArray) (P38158 whole entry): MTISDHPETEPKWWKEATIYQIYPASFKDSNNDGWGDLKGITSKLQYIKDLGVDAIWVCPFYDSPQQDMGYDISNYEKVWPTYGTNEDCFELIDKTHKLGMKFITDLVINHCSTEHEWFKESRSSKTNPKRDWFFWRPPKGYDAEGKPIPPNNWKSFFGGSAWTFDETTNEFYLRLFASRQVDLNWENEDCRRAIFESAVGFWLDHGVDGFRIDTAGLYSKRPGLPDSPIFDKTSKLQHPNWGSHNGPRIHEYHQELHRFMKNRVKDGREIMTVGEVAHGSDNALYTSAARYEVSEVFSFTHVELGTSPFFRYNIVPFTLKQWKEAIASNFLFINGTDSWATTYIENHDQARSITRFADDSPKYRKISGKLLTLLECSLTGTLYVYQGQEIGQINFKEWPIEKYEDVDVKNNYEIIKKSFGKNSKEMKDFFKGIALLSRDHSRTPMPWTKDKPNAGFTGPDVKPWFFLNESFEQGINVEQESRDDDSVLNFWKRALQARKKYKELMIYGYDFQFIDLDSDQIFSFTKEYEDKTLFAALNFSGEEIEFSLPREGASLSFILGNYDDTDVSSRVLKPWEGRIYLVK

B1: purified and biotinylated cytoplasmic domain of the Msb2p protein (HIS-Msb2p^CYT) (domain or fragment, S. cerevisiae, UniProt P32334 1207-1306, looked up)
chain: AFKYIIRRRIQSQEIIKNPEISSISSSEFGGEKNYNNEKRMSVQESITQSMRIQNWMDDSYYGHGLTNNDSTPTRHNTSSSIPKISRPIASQNSLGWNEV
modifications: biotinylated in vitro (sites not given)
binds: all assays above
